Consider one molecule from patent US20210388041A1 (NEXEL, published 2021).

Assay [1] concerns the target T1, integrin β3 (integrin αvβ3) (human, UniProt P05106 27-788; P06756 31-1048).
T1 construct: whole, on cells; The assays detect the β3 chain with an antibody; The legend speaks of integrin αvβ3 on HSCs; also called Integrin B3; integrin β3/β5
The experiment in a line: proximity ligation assay in human HSCs. The method, then: (§1) For the PLA incorporation assay, human HSCs were seeded at 2×10⁴ cells per well on the 18 mm circular cover glass in 12-well plates and cultured for 24 hours. After serum starvation for 24 hours, the cells were treated with 10 ng/ml of TGF-β1 and/or 500 ng/ml of NP-011, and then, further incubated for 30 minutes. The PLA incorporation was accessed using the Duolink In Situ Red Starter Kit (Merck) according to the manufacturer's instructions. Digital images of PLA-positive cells were captured using a microscope (Nikon) and analyzed using ImageJ software <https://imagej.nih.gov/iy>.
(§2) It was investigated herein the mechanism of action for NP-011's rapid and effective suppression TGF-β signaling observed in diseased liver (FIGS. 1E and 2F). One day after administration of NP-011 in TAA-induced fibrotic liver, NP-011 preferentially bound to α-SMA-positive HSCs, and some of NP-011 interacted with macrophages in the liver (FIG. 6). Integrin αvβ3 and αvβ5 on the surface of HSCs have been previously implicated in regulating fibrosis. Additionally, the crosstalk between integrin and TGF-β signaling may be important in the regulation of pathological epithelial to mesenchymal transition (EMT) and myofibroblast differentiation. […] As a consequences of NP-011 treatment in TGF-β1-treated HSCs, the proliferative HSCs returned to quiescent status (FIG. 7D). […]

For assay [2], the target named is T2, integrin β5 (integrin αvβ5) (human, UniProt P18084 24-799; P06756 31-1048).
T2 construct: whole, on cells; The assays detect the β5 chain with an antibody; The legend speaks of integrin αvβ5 on HSCs; also called Integrin B5; integrin β3/β5
Nature of the assay: proximity ligation assay in human HSCs. The method, then: as §1, §2

T2 sequence (P18084 24-799, chain 1 of 2): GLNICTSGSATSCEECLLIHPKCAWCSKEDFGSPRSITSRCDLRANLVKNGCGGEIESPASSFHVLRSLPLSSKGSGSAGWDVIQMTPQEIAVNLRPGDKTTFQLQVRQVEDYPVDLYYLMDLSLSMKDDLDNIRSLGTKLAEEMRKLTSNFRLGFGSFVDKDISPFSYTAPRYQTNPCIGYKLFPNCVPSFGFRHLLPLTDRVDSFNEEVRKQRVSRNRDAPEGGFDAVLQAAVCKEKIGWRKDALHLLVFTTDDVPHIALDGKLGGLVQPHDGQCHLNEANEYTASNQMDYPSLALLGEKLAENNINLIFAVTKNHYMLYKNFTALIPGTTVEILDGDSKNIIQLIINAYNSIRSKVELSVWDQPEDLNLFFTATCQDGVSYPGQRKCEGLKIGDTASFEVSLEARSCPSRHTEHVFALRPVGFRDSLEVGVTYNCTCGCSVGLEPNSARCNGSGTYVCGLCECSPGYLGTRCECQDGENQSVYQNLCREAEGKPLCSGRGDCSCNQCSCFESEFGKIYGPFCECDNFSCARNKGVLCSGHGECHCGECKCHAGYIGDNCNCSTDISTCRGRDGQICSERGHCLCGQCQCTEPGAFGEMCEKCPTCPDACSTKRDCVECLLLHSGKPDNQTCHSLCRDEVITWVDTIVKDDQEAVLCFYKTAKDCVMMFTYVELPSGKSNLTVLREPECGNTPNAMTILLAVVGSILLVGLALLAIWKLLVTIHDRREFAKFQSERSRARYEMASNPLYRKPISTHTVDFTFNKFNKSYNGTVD
T2 sequence (P06756 31-1048, chain 2 of 2): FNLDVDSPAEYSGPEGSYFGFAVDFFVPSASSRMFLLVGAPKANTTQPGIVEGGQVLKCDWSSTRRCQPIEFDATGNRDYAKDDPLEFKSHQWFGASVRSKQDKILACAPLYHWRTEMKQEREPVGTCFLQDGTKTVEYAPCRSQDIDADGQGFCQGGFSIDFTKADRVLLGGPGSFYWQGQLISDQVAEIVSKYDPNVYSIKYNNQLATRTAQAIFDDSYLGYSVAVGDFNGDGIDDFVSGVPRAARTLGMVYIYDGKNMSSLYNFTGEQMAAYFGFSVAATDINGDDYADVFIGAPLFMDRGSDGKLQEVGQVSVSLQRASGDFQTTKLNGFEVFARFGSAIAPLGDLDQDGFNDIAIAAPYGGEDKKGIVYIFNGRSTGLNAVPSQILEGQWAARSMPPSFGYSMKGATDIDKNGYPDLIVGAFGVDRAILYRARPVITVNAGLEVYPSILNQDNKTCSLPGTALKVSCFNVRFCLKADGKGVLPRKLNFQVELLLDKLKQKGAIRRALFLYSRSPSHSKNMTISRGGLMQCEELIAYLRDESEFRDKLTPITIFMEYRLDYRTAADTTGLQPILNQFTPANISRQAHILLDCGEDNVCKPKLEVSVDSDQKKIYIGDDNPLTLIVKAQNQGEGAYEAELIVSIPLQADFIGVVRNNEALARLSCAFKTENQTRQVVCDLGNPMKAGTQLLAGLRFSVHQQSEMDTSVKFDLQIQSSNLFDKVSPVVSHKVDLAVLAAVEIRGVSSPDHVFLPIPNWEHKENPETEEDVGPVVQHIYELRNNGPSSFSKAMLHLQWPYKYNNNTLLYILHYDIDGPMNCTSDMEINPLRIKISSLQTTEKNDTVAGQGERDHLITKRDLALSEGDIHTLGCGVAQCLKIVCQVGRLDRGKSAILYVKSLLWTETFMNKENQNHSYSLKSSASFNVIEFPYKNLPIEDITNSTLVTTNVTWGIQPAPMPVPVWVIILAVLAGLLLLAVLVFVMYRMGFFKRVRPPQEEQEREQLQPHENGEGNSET
T1 sequence (P05106 27-788, chain 1 of 2): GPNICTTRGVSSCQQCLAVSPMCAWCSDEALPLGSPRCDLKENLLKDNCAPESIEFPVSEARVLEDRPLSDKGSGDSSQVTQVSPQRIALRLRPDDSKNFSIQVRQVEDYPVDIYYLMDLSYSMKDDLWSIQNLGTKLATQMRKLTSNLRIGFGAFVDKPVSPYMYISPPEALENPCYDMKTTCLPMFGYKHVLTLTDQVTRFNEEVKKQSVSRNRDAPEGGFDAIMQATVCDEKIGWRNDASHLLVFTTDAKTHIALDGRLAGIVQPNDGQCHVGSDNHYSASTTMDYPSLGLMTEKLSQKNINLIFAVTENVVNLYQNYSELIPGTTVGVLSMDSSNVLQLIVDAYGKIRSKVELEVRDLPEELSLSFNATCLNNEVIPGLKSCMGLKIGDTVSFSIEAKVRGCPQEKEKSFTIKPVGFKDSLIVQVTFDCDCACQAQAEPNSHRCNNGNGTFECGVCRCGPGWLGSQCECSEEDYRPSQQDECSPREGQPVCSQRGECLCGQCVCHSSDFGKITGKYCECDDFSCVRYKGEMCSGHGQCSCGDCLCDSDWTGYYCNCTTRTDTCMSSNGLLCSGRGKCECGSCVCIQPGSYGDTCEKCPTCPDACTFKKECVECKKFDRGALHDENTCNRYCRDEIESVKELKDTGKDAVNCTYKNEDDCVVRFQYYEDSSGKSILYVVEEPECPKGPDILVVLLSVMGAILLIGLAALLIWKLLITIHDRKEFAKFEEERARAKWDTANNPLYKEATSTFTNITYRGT
T1 sequence (P06756 31-1048, chain 2 of 2): as the sequence (P06756 31-1048, chain 2 of 2) above

B1: TGF-β receptor 1 (TGFBRI) (receptor, human, UniProt P36897 34-503, looked up)
chain: LQCFCHLCTKDNFTCVTDGLCFVSVTETTDKVIHNSMCIAEIDLIPRDRPFVCAPSSKTGSVTTTYCCNQDHCNKIELPTTVKSSPGLGPVELAAVIAGPVCFVCISLMLMVYICHNRTVIHHRVPNEEDPSLDRPFISEGTTLKDLIYDMTTSGSGSGLPLLVQRTIARTIVLQESIGKGRFGEVWRGKWRGEEVAVKIFSSREERSWFREAEIYQTVMLRHENILGFIAADNKDNGTWTQLWLVSDYHEHGSLFDYLNRYTVTVEGMIKLALSTASGLAHLHMEIVGTQGKPAIAHRDLKSKNILVKKNGTCCIADLGLAVRHDSATDTIDIAPNHRVGTKRYMAPEVLDDSINMKHFESFKRADIYAMGLVFWEIARRCSIGGIHEDYQLPYYDLVPSDPSVEEMRKVVCEQKLRPNIPNRWQSCEALRVMAKIMRECWYANGAARLTALRIKKTLSQLSQQEGIKM
notes: whole, on cells; Endogenous protein of human HSCs; Detected in situ by PLA and pulled down from cell lysate with a TGFβRI antibody (Abcam ab31013); also called TGFβRI; TGFBR1
Consider B1, for which the binding result in assay [1] and in assay [2] was “binds” in each case.
